Legend:
[1] = target: FZD5-FZD6 chimeric protein (human); assay: FRET or BRET; NanoBiT/BRET saturation binding on live HEK293A cells (setup 1): eGFP-WNT-3A conditioned medium 16.7 pM to 16.7 nM, 5% FBS, 10 mM HEPES, 240 min at 37 °C, then LgBiT and furimazine for 10 min; one-site specific model (normalised logarithmic fits for pKd)
[2] = target: FZD5-FZD7 chimeric protein (human); assay: as above

Sequence of eGFP-tagged mouse WNT-3A (P27467 19-352): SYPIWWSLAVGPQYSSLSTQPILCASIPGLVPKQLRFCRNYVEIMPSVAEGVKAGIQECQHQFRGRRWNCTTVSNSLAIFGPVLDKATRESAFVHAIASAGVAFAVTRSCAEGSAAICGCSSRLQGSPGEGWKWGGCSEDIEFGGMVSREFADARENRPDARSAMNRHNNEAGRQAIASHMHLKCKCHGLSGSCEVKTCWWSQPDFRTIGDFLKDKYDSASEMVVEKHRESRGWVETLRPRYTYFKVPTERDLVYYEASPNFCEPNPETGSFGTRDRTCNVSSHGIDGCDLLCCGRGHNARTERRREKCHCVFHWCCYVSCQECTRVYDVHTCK

Kd [1]: 4.4 nM
Kd [2]: 5 nM
Substance: eGFP-tagged mouse WNT-3A (from UniProt P27467 19-352) (ligand)

Source: paper PMC8205236
